Key:
SOX17 HMG-box WT [1] = target: T1, SOX17 HMG-box WT (UniProt Q9H6I2 66-145); assay: NMR HSQC titration; 100 uM protein, 25-100 uM ssDNA; shifts at R125-R138, I68, A74, M76, E97, K100, W106; FP: 50 mM Tris, 125 mM NaCl, pH 8.0, 80 nM RNA, temperature not stated; EMSA: equal volumes of 100 uM protein and ssDNA, room temperature 15 min, 1.5% agarose; conditions: protein: recombinant; tags: 6xHis
SOX17 dC HMG-box [2] = target: T2, SOX17 dC HMG-box (UniProt Q9H6I2 66-137); assay: EMSA; FP: 50 mM Tris, 125 mM NaCl, pH 8.0, 80 nM RNA, temperature not stated; EMSA: equal volumes of 100 uM protein and ssDNA, room temperature 15 min, 1.5% agarose; conditions: protein: recombinant; tags: 6xHis
T2 sequence (Q9H6I2 66-137): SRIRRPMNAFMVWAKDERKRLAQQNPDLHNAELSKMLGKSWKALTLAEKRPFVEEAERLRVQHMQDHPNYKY

SOX17 dCN HMG-box [3] = target: T3, SOX17 dCN HMG-box (UniProt Q9H6I2 74-137); assay: as above; conditions: protein: recombinant; tags: 6xHis
T3 sequence (Q9H6I2 74-137): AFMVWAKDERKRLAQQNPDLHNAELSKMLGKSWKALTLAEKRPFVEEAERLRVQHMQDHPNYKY

SOX17 dN HMG-box = SOX17 dN HMG-box (UniProt Q9H6I2 74-145); assay: as above; conditions: protein: recombinant; tags: 6xHis
Sequence of SOX17 dN HMG-box (Q9H6I2 74-145): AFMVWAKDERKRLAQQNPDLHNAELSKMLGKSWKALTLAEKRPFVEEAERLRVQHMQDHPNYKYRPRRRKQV

SOX17 HMG-box WT [4] = target: T1, SOX17 HMG-box WT; assay: as above; conditions: protein: recombinant, tags: 6xHis
SOX30 HMG-box [5] = target: T4, SOX30 HMG-box (UniProt O94993 335-423); assay: as above; conditions: protein: recombinant; tags: 6xHis; named 60-mer; length as printed may differ
T4 sequence: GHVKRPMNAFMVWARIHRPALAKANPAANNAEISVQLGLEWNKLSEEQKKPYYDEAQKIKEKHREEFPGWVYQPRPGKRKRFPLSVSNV

SRY HMG-box = SRY HMG-box (UniProt Q05066 58-140); assay: as above; conditions: protein: recombinant; tags: 6xHis; named 60-mer; length as printed may differ
Sequence of SRY HMG-box (Q05066 58-140): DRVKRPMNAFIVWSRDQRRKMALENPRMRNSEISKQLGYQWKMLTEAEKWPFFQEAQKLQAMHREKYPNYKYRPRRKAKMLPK

SOX15 HMG-box = SOX15 HMG-box (UniProt O60248 47-135); assay: as above; conditions: protein: recombinant; tags: 6xHis; named 60-mer; length as printed may differ
Sequence of SOX15 HMG-box (O60248 47-135): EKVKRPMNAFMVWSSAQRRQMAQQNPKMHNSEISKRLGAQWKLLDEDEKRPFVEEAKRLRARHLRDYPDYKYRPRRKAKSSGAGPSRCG

SOX11 HMG-box = SOX11 HMG-box (UniProt P35716 47-135); assay: as above; conditions: protein: recombinant; tags: 6xHis; named 60-mer; length as printed may differ
Sequence of SOX11 HMG-box (P35716 47-135): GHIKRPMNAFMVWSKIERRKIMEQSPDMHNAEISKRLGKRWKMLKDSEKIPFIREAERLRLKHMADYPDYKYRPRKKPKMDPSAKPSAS

SOX9 HMG-box = SOX9 HMG-box (UniProt P48436 103-183); assay: as above; conditions: protein: recombinant; tags: 6xHis; named 60-mer; length as printed may differ
Sequence of SOX9 HMG-box (P48436 103-183): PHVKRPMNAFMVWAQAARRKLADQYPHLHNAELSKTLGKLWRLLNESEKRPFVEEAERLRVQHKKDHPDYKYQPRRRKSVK

SOX6 HMG-box = SOX6 HMG-box (UniProt P35712 619-707); assay: as above; conditions: protein: recombinant; named 60-mer; length as printed may differ
Sequence of SOX6 HMG-box (P35712 619-707): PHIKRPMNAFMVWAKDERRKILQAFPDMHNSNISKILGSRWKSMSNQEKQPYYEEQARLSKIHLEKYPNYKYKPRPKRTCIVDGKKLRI

SOX21 HMG-box = SOX21 HMG-box (UniProt Q9Y651 6-94); assay: EMSA; complex stays in well; FP: 50 mM Tris, 125 mM NaCl, pH 8.0, 80 nM RNA, temperature not stated; EMSA: equal volumes of 100 uM protein and ssDNA, room temperature 15 min, 1.5% agarose; conditions: protein: recombinant; tags: 6xHis; named 60-mer; length as printed may differ
Sequence of SOX21 HMG-box (Q9Y651 6-94): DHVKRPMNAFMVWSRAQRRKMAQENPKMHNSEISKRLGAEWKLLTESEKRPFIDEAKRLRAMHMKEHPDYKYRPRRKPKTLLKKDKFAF

SOX2 HMG-box [6] = target: T5, SOX2 HMG-box (UniProt P48431 39-127); assay: as above; conditions: protein: recombinant; named 60-mer; length as printed may differ
T5 sequence (P48431 39-127): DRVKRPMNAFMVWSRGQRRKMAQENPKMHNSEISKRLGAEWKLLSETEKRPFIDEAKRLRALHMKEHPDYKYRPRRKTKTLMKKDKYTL

SOX30 HMG-box [7] = target: T4, SOX30 HMG-box; assay: fluorescence polarisation; FP: 50 mM Tris, 125 mM NaCl, pH 8.0, 80 nM RNA, temperature not stated; EMSA: equal volumes of 100 uM protein and ssDNA, room temperature 15 min, 1.5% agarose; conditions: protein: recombinant; tags: 6xHis; label: 3' FAM; hairpin
SOX17 dC HMG-box [8] = target: T2, SOX17 dC HMG-box; assay: as above; conditions: protein: recombinant; tags: 6xHis; label: 3' FAM; hairpin
SOX2 HMG-box [9] = target: T5, SOX2 HMG-box; assay: as above; conditions: protein: recombinant; label: 3' FAM; hairpin
SOX17 dCN HMG-box [10] = target: T3, SOX17 dCN HMG-box; assay: as above; conditions: protein: recombinant; tags: 6xHis; label: 3' FAM; hairpin
SOX17 HMG-box WT [11] = target: T1, SOX17 HMG-box WT; assay: as above; conditions: protein: recombinant; tags: 6xHis; label: 3' FAM; hairpin

T1 sequence (Q9H6I2 66-145): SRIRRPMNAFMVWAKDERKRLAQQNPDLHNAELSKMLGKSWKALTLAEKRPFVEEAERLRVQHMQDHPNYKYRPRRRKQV

## ATCGATCGATCG (ssDNA) [12-mer ssDNA]
SOX17 HMG-box WT [1]
  binding result: binds

## CCCCATCTTAGTATATTAGTTA (ssDNA) [22-mer ssDNA]
SOX17 dC HMG-box [2]
  binding result: no binding
SOX17 dCN HMG-box [3]
  binding result: no binding
SOX17 dN HMG-box
  binding result: binds
SOX17 HMG-box WT [4]
  binding result: binds

B1: 60-mer ssDNA (ssDNA)
DNA: GTTAGAGGTGCCCCACAGGCGGCGGTTAGTATTCCCCGCCGCCTGGGGCACCGGGGCAC
SOX30 HMG-box [5]
  binding result: no binding
SRY HMG-box
  binding result: binds
SOX15 HMG-box
  binding result: binds
SOX17 HMG-box WT [4]; named 60-mer, length as printed may differ
  binding result: binds
SOX11 HMG-box
  binding result: binds
SOX9 HMG-box
  binding result: binds
SOX6 HMG-box
  binding result: binds
SOX21 HMG-box
  binding result: binds
SOX2 HMG-box [6]
  binding result: binds

## GGUCGCCGUGGCCACUUCGAAAGGGGUGGAAAGGGCGACC (structured_RNA) [40-mer RNA, ES2 lncRNA hairpin Loop A]
SOX30 HMG-box [7]
  binding result: no binding
SOX17 dC HMG-box [8]
  binding result: no binding
SOX2 HMG-box [9]
  Kd: ~57 nM
SOX17 dCN HMG-box [10]
  binding result: no binding
SOX17 HMG-box WT [11]
  Kd: ~327 nM
